The values that follow come from article PMC8769338 (PLoS Pathogens, 2022).

The term EC50 denotes the concentration at which the effect is half-maximal. Read a low EC50 as an effect from little substance.

Several values for one entry are separate records, joined by “and”; a condition that tells them apart may be missing. Identical values can stand only once.

Details in all cases: both partners purified
The target of assay [1] is T1, LC/B1 (light chain protease domain of BoNT/B1), as used in the ELISAs of Table 2 (Clostridium botulinum, BoNT/B1, UniProt P10844). Description: ELISA; dilution ELISA of VHH on LC/B coated to Nunc plastic. (ELISA stands for enzyme-linked immunosorbent assay.)
Assay [2] addresses T1, LC/B1 (light chain protease domain of …). Description: ELISA.
The target of assay [3] is LC/A1 (light chain protease domain of BoNT/A1), as used in the ELISAs of Table 1 (Clostridium botulinum, BoNT/A1, UniProt P0DPI0). Description: ELISA.
For assay [4], the target named is LC/A2, strep-tag fusion protein (Clostridium botulinum, BoNT/A2 (strain …, UniProt Q45894, strain)). Description: ELISA.

B1: BLc-B10 (VHH)
VHH: QLQLVESGGGMVQPGGSLRLSCAASGFTFSTYDMSWVRQAPGKGPEWVSIINAGGGSTYYAASVKGRFAISRDNAKNTLYLQMNNLKPEDTALYYCARVASYYCRGYVCSPPEFDYWGQGTQVTVSS
notes: source: pET-32 vector, thioredoxin fusion, purified
As to B1, the EC50 in assay [1] is 0.3 nM; in assay [2], 5 nM and 10 nM.

B2: ciA-D1 (VHH)
VHH: QVQLVESGGGLVQPGGSLRLSCATSGFTLEYYAIGWFRQAPGKGREGVACMNSSGGGTNYADSVKGRFTISRDNAKKMVYLQMNSLKSEDTAVYYCVVDDFRCGSRWAAYLRSSWGQGTQVTVSS
notes: as for B1
As to B2, the EC50 in assay [3] is 1 nM and 0.4 nM.

B3: JND-E5 (VHH)
VHH: QVQLVESGGLVQPGGSLRLSCAASGFTLDYYGIGWVRQAPGKEREEVSCITSGGLTNYPDSVKGRFTISRDNAKNTVYLQMNSLKPEDTAVYYCAIDRVGVCAMEDFGSWGQGTQVTVSS
notes: as for B1
Turning to B3, in assay [2], the half-maximal effective concentration (EC50) is 5 nM and 2 nM.

B4: JPU-G11 (VHH)
VHH: QLQLVETGGGLVQPGGSLRLACVASESVFEMYTVAWYRQAPGKQRELVAGITDEGRTNYADFVKGRFTISRDNSKKTVHLQMDNLNPEDTAVYYCKLEHDLGYYDYWGQGTQVTVSS
notes: form of the ELISAs; source: pET-32 vector, thioredoxin fusion, purified
B4: in assay [3], the 50% effective concentration (EC50) is 1 nM and 0.5 nM.

B5: JPU-A5 (VHH)
VHH: QVQLVETGGGLVQAGGSLRLSCTASGADFSFYAMGWYRQTPGNSRELVAVMNLNGVISYGDSARGRFDISRDGTKNIVFLQMNSLKPEDTGVYYCNGMRLYTRGSVRHPESWGQGIQVTVSS
notes: as for B4
Consider B5, for which the binding result in assay [4] is “binds”.

B6: JLO-G7 (VHH)
VHH: QVQLVESGGGLVQAGGSLRLSCAASGFPFGSYYMSWVRQAPGKGPEWVSDISNGGIITRYSDSVKGRFTISRDNAKNILYLQMNSLKPEDTALYFCATGTGRDWSREYRGQGTQVTVSS
notes: as for B1
Molecule B6 yielded an EC50 in assay [2] of 0.5 nM.

B7: JND-E9 (VHH)
VHH: QVQLVETGGGLVQAGDSLRLSCAASGRTFNYYAMAWFRQAPGKEREFVAFINWSGDSTYYAGSVKGRFTISRDNAKNTVYLQMNNLKPEDTAVYSCAAEFGTFSYLQGDDYSYWGQGTQVTVSS
notes: as for B1
Take B7: the EC50 in assay [2] is 1 nM and 0.5 nM.

B8: JND-B4 (VHH)
VHH: QVQLVETGGGLVQPGGSLRLSCVASGFTLDSYAIGWFRQAPGKEREGVSCMSSGDGSTYYTNSVKGRFTISRDNAQNTVYLQMNSLKPEDTAVYYCAADGFDYCSAYVPGRGMNYSGKGTLVTVSS
notes: as for B1
B8: the concentration for a half-maximal effect (EC50) in assay [2] was 0.8 nM and 0.5 nM.

B9: JPU-C10 (VHH)
VHH: QLQLVESGGGLVQPGGSLRLSCAASGNIFSIYYMGWYRQAPGKQREMVAIINSNGITNYGDFVKGRFTISRDNAENSAYLQMNNLTPEDTAVYYCNAGKLRRTTGWGLDDYWGQGTQVTVSS
notes: as for B4
For the molecule B9, in assay [4], the binding result is reported as “binds”.
